Experimental data: the nanobody polyreactivity screen of Harvey et al. (2022)

Test: yeast display, Sf9 membrane polyspecificity reagent, FACS + sequencing; frameworks hold sequencing errors
Method in brief: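 Nanobodies from a synthetic yeast display library (Saccharomyces cerevisiae BJ5465), induced 36–48 hours with galactose, were stained 1 hour at 4 °C with 10% biotinylated, detergent-solubilized Sf9 membrane reagent, enriched on streptavidin microbeads, then FACS-sorted. Anti-HA (expression) and streptavidin (reagent binding) fluorescence set low and high (top ~1%) gates. Polyreactivity labels come from the gate of origin. Genes were colony-PCR amplified, MiSeq 2 × 250 sequenced and filtered by CDR length.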
With “QVQLVESGGGLVQAGGSLRLSCAASGSIFTVYTMGWYRQAPGKVRELVAAINSRGGTTYYADSVKGRFTISRDNAKNTLYLQMNSLKPEDTAVYYCAAKQRPKSYGPGHYYWGQGTQVTVSS” the “polyreactivity (PSR sort gate)” value was “high polyreactivity”. For “QVQLVESGGGLVQAGGSLRLSCAASGSIFTWYAMGWYRQAPGKERELVAAITRGGSTYADSVKGRFTISRDNAKYTVYLQMNSLKPEDTAVYYCNAVYGVYDFNYWGQGTQVTVSS”, the “polyreactivity (PSR sort gate)” value was “low polyreactivity”. In the case of “QVQLVESGGGLVQAGGSLRLSCAASGSIFTYKAKVRYRQAPGKERELVAAISASGGSTYYADSVKGRFTISRDNAKHTVYVQMNSLKPEDTALYYCNAYQTSTPLFPGYGYWGQGTQVTVSS”, the “polyreactivity (PSR sort gate)” value is reported as “low polyreactivity”. With “QVQLVESGGGLVQAGGSLRLSCAASGSIFTYNAMGWYRQAPGKERELVAAISSRGTSTYYADSVKGRFTISRDNAKNTVYLQMNSLKPEDTAVYYCAAVWVSQRRPWGNTNNYWGQGTQVTVSS” the “polyreactivity (PSR sort gate)” value was “high polyreactivity”. In the case of “QVQLVESGGGLVQAGGSLRLSCAASGSIFTYNAMGWYRQAPGKERELVAAITGDDITNYADSVKGRFTISRDNAKNTVYLQMNSLKPEYTAVYYCARDQWVFGSSPVQAGEYWGQGTQVTVSS”, the “polyreactivity (PSR sort gate)” value is reported as “low polyreactivity”. With “QVQLVESGGGLVQAGGSLRLSCAASGSIFTYNAMGWYRQAPGKERELVASITWSGGSTYYADSVKGRFTISRDNAKNTVYLQMNSLKPEDTAVYYCAAKRVHGATGYWGQGTQVTVSS” the “polyreactivity (PSR sort gate)” value was “high polyreactivity”. For “QVQLVESGGGLVQAGGSLRLSCAASGSIFTYNGMGWYRQAPGKEREFVAAITWTGGSTYADSVKGRFTISRDNAKNTVYLQMNSLKPEDTAVYYCAAVRRISWYTPVNTRRYYYWGQGTQVTVSS”, the “polyreactivity (PSR sort gate)” value was “high polyreactivity”. For “QVQLVESGGGLVQAGGSLRLSCAASGSIFTYNVMGWYRHAPGKERELVAAIRTRGDRTYYADSVKGRFTISRDNAKNTVYLQMNSLKPDDTAVYYCAAAGSYYSHEYWGQGTQVTVSS”, the “polyreactivity (PSR sort gate)” value was “high polyreactivity”. In the case of “QVQLVESGGGLVQAGGSLRLSCAASGSIFTYYAMGWYRQAPGKERELVAAISLDGGSTYYADSVKGRFTISRDNAKNTVYLQMNSLKPEDTAVYYCAADYRFIPYTYLYDYWGQGTQVTVSS”, the “polyreactivity (PSR sort gate)” value is reported as “low polyreactivity”. For “QVQLVESGGGLVQAGGSLRLSCAASGSIFTYYAMGWYRQAPGKERELVAAISWRSGSTYYADSVKGRFTISRDNAKNTVYLQMNSLKPEDTAVYYCAAEDFDYAVWYDYWGQGTQVTVSS”, the “polyreactivity (PSR sort gate)” value was “high polyreactivity”. In the case of “QVQLVESGGGLVQAGGSLRLSCAASGSIFTYYAMGWYRQAPGKERELVAAISWSGGSTYYADSVKGRFTISRDNAKNTVYLQMNSLKPEDTAVYYCAAGRFYKWSRYQEYDYWGQGTQVTVSS”, the “polyreactivity (PSR sort gate)” value is reported as “low polyreactivity”. For “QVQLVESGGGLVQAGGSLRLSCAASGSIFTYYAMGWYRQAPGKERELVAAITWGGSTYADSVKGRFTISRDNAKNTVYLQMNSLKPEDTAVYYCAAQFRSYRYPAYHYDYWGQGTQVTVSS”, the “polyreactivity (PSR sort gate)” value was “low polyreactivity”. With “QVQLVESGGGLVQAGGSLRLSCAASGSIFTYYAMGWYRQAPGKERELVATITGLGGRTYYADSVKGRFTISRDIAKNTVYLQMNSLKPEDTAVYYCAVVPETRYYYWGHGTQVTVSS” the “polyreactivity (PSR sort gate)” value was “high polyreactivity”. In the case of “QVQLVESGGGLVQAGGSLRLSCAASGSIFTYYAMGWYRQAPGKERELVDAITWDDDGTYYADSVKGRFTISRDNAKNTVYLQMNSLKPEDTAVYYCAADDGDPYDYWGQGSQVTVSS”, the “polyreactivity (PSR sort gate)” value is reported as “low polyreactivity”. For “QVQLVESGGGLVQAGGSLRLSCAASGSIFTYYVMGWYRQAPGKERELVAGITGGGSTNYADSVKGRFTISRDNAKNTVYLQMNSLKPEDTAVYYCNAYEYLSAGYDYWGQGTQVTVSS”, the “polyreactivity (PSR sort gate)” value was “low polyreactivity”. With “QVQLVESGGGLVQAGGSLRLSCAASGSIFTYYVMGWYRQAPGKERELVAVISRRGGRTYYADSVKGRFTISRDNAKNTVYLQMNSLKPEDTAVYYCATTYKTRYGGRYRYYYWGQGTQVTVSS” the “polyreactivity (PSR sort gate)” value was “high polyreactivity”. In the case of “QVQLVESGGGLVQAGGSLRLSCAASGSIFVAYEMGWYRPAPGKERELVAAIDSVGRTNYADSVKGRFTISRDNAKNTDYLQMNSLKRVDTSVYSCNADQYYSFYDPDDYWGQGTQVTVSS”, the “polyreactivity (PSR sort gate)” value is reported as “low polyreactivity”. In the case of “QVQLVESGGGLVQAGGSLRLSCAASGSIFVDNAMGWYRQAPGTERELVAAINWSGGSTYYADSVKGRFTISRDNAKNTVYLQMNSLKPEDTAVYYCIAARPGQTWDEQSWYDYWGQGTQVTVSS”, the “polyreactivity (PSR sort gate)” value is reported as “low polyreactivity”. With “QVQLVESGGGLVQAGGSLRLSCAASGSIFVENAMGWNRQAPGKEREFVAAITRSGGSTYYADSVKGRFTISRDNAKNTVYLQMKILKPEDTAVYYCSARIWDEQPAGGYYWGQGTQVTVSS” the “polyreactivity (PSR sort gate)” value was “low polyreactivity”. In the case of “QVQLVESGGGLVQAGGSLRLSCAASGSIFVEYAMGWYRQAPGKERELVAAISYSGSSTNYADSVKGRFTISRDNAKNTVYLQMNSLKPEDTAVYYCNADGTGGEQKPYYELDYWGQGTQVTVSS”, the “polyreactivity (PSR sort gate)” value is reported as “low polyreactivity”. In the case of “QVQLVESGGGLVQAGGSLRLSCAASGSIFVEYAMGWYRQAPGKERELVASITWSSTSTYYADSVKGRFTISRDNAKNTVYLQMNSLKPEDTAVYYCNTEDYQYAPYEYDYWGQGTQVTVSS”, the “polyreactivity (PSR sort gate)” value is reported as “low polyreactivity”. In the case of “QVQLVESGGGLVQAGGSLRLSCAASGSIFVEYAMGWYRQAPGQERELVAAISYSGSSTNYADSVKGRFTISRDNAKNTVYLQINSLKPEDTAVYYSNADGTGGEQKPYYELDYWGQGTQVTVSS”, the “polyreactivity (PSR sort gate)” value is reported as “low polyreactivity”. For “QVQLVESGGGLVQAGGSLRLSCAASGSIFVEYVMGWYRQAPGKERELVADISWRDGDTYYADSVKGRFTISRDNAKNTVYLQMNSLKPEDTAVYFCAADVIVPESYGYWPLSYYYWGQGTQVTVSS”, the “polyreactivity (PSR sort gate)” value was “low polyreactivity”. In the case of “QVQLVESGGGLVQAGGSLRLSCAASGSIFVFNAMGWYRQAPGKERELVAAITSGGRTYYADSVKGRFTISRDNAKNTVYLQMNSLKPEDTAVYYCARRYRARGSMYYWGQGTQVTVSS”, the “polyreactivity (PSR sort gate)” value is reported as “high polyreactivity”. With “QVQLVESGGGLVQAGGSLRLSCAASGSIFVFYAMGWYRQAPGKERELVAAISSVGSTYYADSVKGRFTISRDNAKNTVYLQMNSLKPEDTAVYYCAAVTYYSGYYWGQGTQVTVSS” the “polyreactivity (PSR sort gate)” value was “low polyreactivity”. In the case of “QVQLVESGGGLVQAGGSLRLSCAASGSIFVFYAMGWYRQAPGKERELVAAISYRGGSTYADSVKGRFTISRDNEKNTVYLQMNSLKPEDTAVYYCAARGLVRSYDYWGQGTQVTVSS”, the “polyreactivity (PSR sort gate)” value is reported as “high polyreactivity”. For “QVQLVESGGGLVQAGGSLRLSCAASGSIFVGYAMGRYRQAPGKERELVAAISSRGGSTYYADSVKGRFTISRDNAKNTVYLQMNSLKPEDTGVYYCAAEYRAWWYEYDYWGQGTQVTVSS”, the “polyreactivity (PSR sort gate)” value was “high polyreactivity”. For “QVQLVESGGGLVQAGGSLRLSCAASGSIFVGYAMGWYRQAPGKERELVAAISRSGGRTYYADSVKGRFTISRDNAKNTVYLQMISLKPEDTAVYYCARQRYEYRTTYYYWGQGTQVTVSS”, the “polyreactivity (PSR sort gate)” value was “high polyreactivity”. In the case of “QVQLVESGGGLVQAGGSLRLSCAASGSIFVGYAMGWYRQAPGKERELVAAITGSGTRTYYADSVKGRFTISRDNAKNTVYLQMNSLKPEDTAVYYCAAPLSYKNVKYDYWGQGTQVTVSS”, the “polyreactivity (PSR sort gate)” value is reported as “low polyreactivity”. For “QVQLVESGGGLVQAGGSLRLSCAASGSIFVGYAMGWYRQAPGKEREMVAAITGSGTRTYYADSVKGRFTISRDNAKNTVYLQMNSLKPEDTAVYYCAAPLSYKNVKYDYWGQGTQVTVSS”, the “polyreactivity (PSR sort gate)” value was “low polyreactivity”. In the case of “QVQLVESGGGLVQAGGSLRLSCAASGSIFVHNDMGWYRQAPGKERELVATIDSAGGTYYADSVKGRFTISRDNAKNTVYLQMNSLKPEDTAVYYCAAYGPYVLSIYDYWGQGTQVTVSS”, the “polyreactivity (PSR sort gate)” value is reported as “low polyreactivity”. For “QVQLVESGGGLVQAGGSLRLSCAASGSIFVHYAMGGYRQAPGKERELVAAISQRGGSTSYADSVKGRFTISRDNAKNTVYLQMNSLKPEDTAVYYCAAENWIGDYYWGQGTQVTVSS”, the “polyreactivity (PSR sort gate)” value was “low polyreactivity”. For “QVQLVESGGGLVQAGGSLRLSCAASGSIFVHYAMGWYRQAPGKERELVARISWRGNTYYADSVKGRFTISRDNAKNTVYLQMNSLKPEDTAVYYCAKDVRRSLVIWDVVYPHGYWGQGTQVTVSS”, the “polyreactivity (PSR sort gate)” value was “low polyreactivity”. For “QVQLVESGGGLVQAGGSLRLSCAASGSIFVIYAMGWYRQAPGKERELVAAITSGGNTTYADSVKGRFTISRDNAKNTVYLQMNSLKPEDTAVYYCAAYSYYTGDQYSYDYWGQGTQVTVSS”, the “polyreactivity (PSR sort gate)” value was “low polyreactivity”. In the case of “QVQLVESGGGLVQAGGSLRLSCAASGSIFVKYAMGWYRQAPGKERELVAAISGSGGSTYYADSVKGRFTISRDNAKNTVYLQMNSLKPEDTAVYYCAAAYHGRHYYWGQGTQVTVSS”, the “polyreactivity (PSR sort gate)” value is reported as “high polyreactivity”. With “QVQLVESGGGLVQAGGSLRLSCAASGSIFVLNAMGWYRQAPGKERELVAVISNIGGRTYYADSVKGRFTISRDNAKNTVYLQMNSLKPEDTAVYYCIFRSPSYEYDYWGQGTQVTVSS” the “polyreactivity (PSR sort gate)” value was “low polyreactivity”. With “QVQLVESGGGLVQAGGSLRLSCAASGSIFVLNAMGWYRQAPGKEWELVAVISNIGGRTYYADSVKGRFTISRDNAKNTVYLQLNSLKPEDTAVYSCAAPFTSTFDYWGQVTQVTVSS” the “polyreactivity (PSR sort gate)” value was “low polyreactivity”. For “QVQLVESGGGLVQAGGSLRLSCAASGSIFVLNAMGWYRQAPGQERELVAAITNVGSTYYADSVKGRFTISRDNAKNTVYLQMNSLKPEDTAVYYCAAVLPFKYDYWGQGTQVTVSS”, the “polyreactivity (PSR sort gate)” value was “low polyreactivity”. In the case of “QVQLVESGGGLVQAGGSLRLSCAASGSIFVLSAMGWYRQAPGKEREFFAAITWSGDSTYYADSVKGRFTISRDNAKNTVYLQMNSLKPEDTAVYYCAAEGNTWPADFLSYYFEFDEYWGQGTQVTVSS”, the “polyreactivity (PSR sort gate)” value is reported as “low polyreactivity”. In the case of “QVQLVESGGGLVQAGGSLRLSCAASGSIFVLYAMGWYRQAPGKERELVAAITSAGSTYYADSVKGRFTISRDNAKNTVYLQMNSLKPEDTAVYYCAARRGASQRRYNYWGQGTQVTVSS”, the “polyreactivity (PSR sort gate)” value is reported as “high polyreactivity”. In the case of “QVQLVESGGGLVQAGGSLRLSCAASGSIFVNNALGWYRQAPGKERELVAAISSRSSRTFYADSVKGRFTISRDNAKNTVYLQMNSLKPEDTAVYYCAVKKRAPDGDYWGQGTQVTVSS”, the “polyreactivity (PSR sort gate)” value is reported as “high polyreactivity”. For “QVQLVESGGGLVQAGGSLRLSCAASGSIFVNNAMGWYRQAPGKERELVAAIRRGSSTNYADSVKGRFTISRDNAKNTVYLQMNSLKPEDTAVYDCAADHDDDEAQNYDYLGQGTQVTVSS”, the “polyreactivity (PSR sort gate)” value was “low polyreactivity”. In the case of “QVQLVESGGGLVQAGGSLRLSCAASGSIFVNNAMGWYRQAPGKERELVAAISSRGGSTYYADSVKGRFTISRDNAKNTVYLQMNSLKPEDTAVYYCAAEYDGPYYSFYPEQRYYWGLGTQVTVSS”, the “polyreactivity (PSR sort gate)” value is reported as “low polyreactivity”.
